# Data taken from paper PMC8543943, “Structure-guided steric hindrance engineering of Bacillus badius phenylalanine dehydrogenase for efficient L-homophenylalanine synthesis” (Biotechnology for Biofuels, 2021).
# Tests used:
# Assay in all cases: purified protein
# Type in all cases: biochemical, Pseudobacillus badius
# purified protein [1] = substrate: NC(=O)C1=CN([C@@H]2O[C@H](COP(=O)(O)OP(=O)(O)OC[C@H]3O[C@@H](n4cnc5c(N)ncnc54)[C@H](O)[C@@H]3O)[C@@H](O)[C@H]2O)C=CC1; details: reductive amination, 2 M NH4Cl/NH4OH pH 9.5, 20 mM 2-OPBA, 30 °C, varied: cofactor
# purified protein [2] = substrate: O=C(O)C(=O)CCc1ccccc1; details: reductive amination, 2 M NH4Cl/NH4OH pH 9.5, 0.5 mM NADH, 30 °C
# purified protein [3] = substrate: O=C(O)C(=O)Cc1ccccc1; details: reductive amination, 2 M NH4Cl/NH4OH pH 9.5, 0.5 mM NADH, 30 °C
protein,measurement,setting,value
"BbPheDH (Pseudobacillus badius) (protein, His-tagged, full length, pET-28a (+), expressed in E. coli BL21 (DE3), Ni-NTA purified) SLVEKTSIIKDFTLFEKMSEHEQVVFCNDPATGLRAIIAIHDTTLGPALGGCRMQPYNSVEEALEDALRLSKGMTYKCAASDVDFGGGKAVIIGDPQKDKSPELFRAFGQFVDSLGGRFYTGTDMGTNMEDFIHAMKETNCIVGVPEAYGGGGDSSIPTAMGVLYGIKATNKMLFGKDDLGGVTYAIQGLGKVGYKVAEGLLEEGAHLFVTDINEQTLEAIQEKAKTTSGSVTVVASDEIYSQEADVFVPCAFGGVVNDETMKQFKVKAIAGSANNQLLTEDHGRHLADKGILYAPDYIVNSGGLIQVADELYEVNKERVLAKTKHIYDAILEVYQQAELDQITTMEAANRMCEQRMAARGRRNSFFTSSVKPKWDIRN",Km,purified protein [1],65 ± 3 µM
same,kcat,purified protein [1],8 ± 1 s⁻¹
same,kcat/Km,purified protein [1],115000 ± 14000 M⁻¹ s⁻¹
same,Km,purified protein [2],600 ± 60 µM
same,kcat,purified protein [2],11 ± 1 s⁻¹
same,kcat/Km,purified protein [2],17000 ± 1000 M⁻¹ s⁻¹
same,Km,purified protein [3],300 ± 40 µM
same,kcat,purified protein [3],115 ± 6 s⁻¹
same,kcat/Km,purified protein [3],370000 ± 45000 M⁻¹ s⁻¹
